Earlier results in paper PMC12362618, “Development of the First Small-Molecule Inhibitor Targeting Oncostatin M for Treatment of Breast Cancer” (Journal of Medicinal Chemistry, 2025).

Biological target: gp130 (Homo sapiens) (UniProt P40189)
Sequence (P40189 23-619): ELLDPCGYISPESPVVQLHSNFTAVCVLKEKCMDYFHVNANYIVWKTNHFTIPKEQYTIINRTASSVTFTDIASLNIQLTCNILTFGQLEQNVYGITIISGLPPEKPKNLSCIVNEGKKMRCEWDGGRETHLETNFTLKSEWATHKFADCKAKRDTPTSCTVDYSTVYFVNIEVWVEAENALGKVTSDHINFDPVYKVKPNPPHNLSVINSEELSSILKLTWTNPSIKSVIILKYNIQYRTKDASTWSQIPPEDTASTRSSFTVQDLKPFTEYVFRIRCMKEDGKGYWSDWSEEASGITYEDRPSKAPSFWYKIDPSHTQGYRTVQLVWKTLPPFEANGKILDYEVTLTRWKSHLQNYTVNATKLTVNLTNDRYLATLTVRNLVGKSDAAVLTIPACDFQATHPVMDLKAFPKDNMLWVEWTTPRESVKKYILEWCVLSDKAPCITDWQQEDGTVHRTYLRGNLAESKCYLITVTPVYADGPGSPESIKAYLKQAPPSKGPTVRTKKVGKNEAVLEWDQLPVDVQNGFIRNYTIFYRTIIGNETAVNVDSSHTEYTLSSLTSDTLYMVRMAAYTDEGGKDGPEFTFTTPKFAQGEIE

OSM, sequence (P13725 26-221): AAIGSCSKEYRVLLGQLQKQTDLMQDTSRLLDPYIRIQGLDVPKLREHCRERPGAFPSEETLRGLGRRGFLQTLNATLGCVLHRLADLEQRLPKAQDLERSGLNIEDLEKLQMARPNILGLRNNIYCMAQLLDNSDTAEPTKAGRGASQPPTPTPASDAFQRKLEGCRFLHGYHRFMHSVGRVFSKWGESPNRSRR

In the case of OSM (from UniProt P13725), the Kd is listed as 22.7 nM.
